Measured values as given in patent US20200062804A1 (ADRX, published 2020).
Non-standard residues stand in square brackets, D forms with d. No end group written: not given here.

T1: Nat1 (LTIITLE) (also: TFA salt)
T1 peptide: LTIITLE


Columns and labels:
Protein in Human Serum = assay: protein binding in human serum; method not described
Nat1 (LTIITLE) = biological target: T1, Nat1 (LTIITLE); assay: cell-based or functional assay

Row | Molecule | % Protein Binding in Human Serum (Protein in Human Serum) [%] | IC50, Thiofiavin T aggregation assay (Nat1 (LTIITLE)) [µM]
1 | rrrrrrrrrrpiyqwyrwq (peptide) | 99 | 
2 | rrrrrrrrrgggyqwyrwq (peptide) | 89 | 
3 | rrrrrrrrrrpikwrwyrr (peptide) | 94 | 
4 | rrrrrrrrrrpihlriwrn (peptide) | 95 | 
5 | rrrrrrrrrrpirihyfrr (peptide) | 93 | 
6 | rrrrrrrrrrpihqrqyqr (peptide) | 12 | 
7 | rrrrrrrrrrpikfrfyhr (peptide) | 86 | 
8 | [dK][dF][dR][dF][dY][dH][dR] [kfrfyhr] | 81 | 0.032
9 | [dQ][dQ][dR][dY][dY][dW][dR] [qqryywr] | 82 | 0.095
10 | [dR][dF][dY][dY][dH][dR][dR] [rfyyhrr] | 91 | 0.076

Now from value to molecule:

Row | % Protein Binding in Human Serum (Protein in Human Serum) [%] | IC50, Thiofiavin T aggregation assay (Nat1 (LTIITLE)) [µM] | Molecule
11 | 100 |  | PRRRRRRRRRRPIWTIKLWHP
12 | 89 |  | PRRRRRRRRRRPITRIRFYRP
13 | 81 |  | RRRRRRRRRRPIIRIRHYRP
14 | 66 |  | RRRRRRRRRRPILTRITLE
15 | 83 |  | RRRRRRRRRRPIIRIRHYP
16 | 98 |  | PRRRRRRRRRRPILRIRYWKP
17 | 89 |  | PRRRRRRRRRRPIIRIRHYRP
18 | 98 | 0.194 | [dY][dQ][dW][dY][dR][dW][dQ] [yqwyrwq]
19 | 84 |  | RRRRRRRRRRPIIRIRHYR
